From publication PMC9160250, “Nuclear Vav3 is required for polycomb repression complex-1 activity in B-cell lymphoblastic leukemogenesis” (Nature Communications, 2022)

Biological target: T1, Bmi1 (mouse (endogenous in Ba/F3 cells and …, UniProt P25916 1-324))
T1 construct: Bmi1, mouse, endogenous protein of Ba/F3 cells and of primary murine B-cell progenitors; also called PCGF4; source: endogenous, Ba/F3 cells (cytoplasmic and nuclear fractions; fixed cells) and murine B-cell progenitors (fixed cells)
T1 sequence (looked up): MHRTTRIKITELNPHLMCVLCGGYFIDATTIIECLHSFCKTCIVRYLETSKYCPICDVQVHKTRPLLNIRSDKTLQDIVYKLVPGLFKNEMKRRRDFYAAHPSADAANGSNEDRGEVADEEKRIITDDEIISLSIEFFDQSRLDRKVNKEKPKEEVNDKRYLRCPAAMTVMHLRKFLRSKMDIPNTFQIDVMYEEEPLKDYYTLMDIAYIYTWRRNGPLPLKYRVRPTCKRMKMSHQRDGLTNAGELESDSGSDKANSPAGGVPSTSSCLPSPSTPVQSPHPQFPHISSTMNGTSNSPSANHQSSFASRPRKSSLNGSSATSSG
Test: proximity ligation; Duolink PLA in fixed, permeabilised primary murine B-cell progenitors on fibronectin-coated slides (empty vector or p190-BCR-ABL transduced; WT, Rac2-/-, or Vav3-/- transduced with empty vector, Vav3 FL or Vav3 N369A); confocal microscopy
Settings: partners not purified

B1: Vav3 NA (N369A mutant which loses the GEF activity) (natural protein, UniProt Q9R0C8 1-847, looked up)
chain: MEPWKQCAQWLIHSKVLPPNHRVTWDSAQVFDLAQTLRDGVLLCQLLNNLRPHSINLKEINLRPQMSQFLCLKNIRTFLAACCDTFGMRKSELFEAFDLFDVRDFGKVIETLSRLSRTPIALATGIRPFPTEESINDEDIYKGLPDLIDETRVEDEEDLYDCVYGEDEGGEVYEDLMKAEEAQQPKSQENDIRSCCLAEIRQTEEKYTETLESIEKYFMAPLKRFLTAAEFDSVFINIPDLVKVHRSLMQEIHDSIVNKDDQNLYQVFINYKERLVIYGQYCSGVESAISNLDYISKTKEDVKLKLEECSKRANNGKFTLRDLLVVPMQRVLKYHLLLQELVKHTHDPMEKANLKLALDAMKDLAQYVAEVKRDNETLREIKQFQLSIENLNQPVLLFGRPQGDGEIRITTLDKHTKQERHIFLFDLAVIVCKRKGDNYEMKEIIDLQQYKIANNPTTDKENKKWSYGFYLIHTQGQNGLEFYCKTKDLKKKWLEQFEMALSNIRPDYADSNFHDFKMHTFTRVTSCRVCQMLLRGTFYQGYLCFKCGAKAHKECLGRVDNCGRVNSVEQGPFKPPEKRTNGLRRASRQVDPGLPKMQVIRNYTGTPAPGLHEGPPLHIQAGDTVELLRGDAHSVFWQGRNLASGEVGFFPSDAVKPSPCVPKPVDYSCQPWYAGPMERLQAETELINRVNSTYLVRHRTKESGEYAISIKYNNEAKHIKILTRDGFFHIAENRKFKSLMELVEYYKHHSLKEGFRTLDTTLQFPYKEPEQPAGQRGNRTGNSLLSPKVLGIAIARYDFCARDMRELSLLKGDMVKIYTKMSANGWWRGEVNGRVGWFPSTYVEEDE
notes: Vav3 with N369A; also called Vav3(N369A); Vav3N369A; source: lentiviral vector pCDH-EF1-MCS-IRES-GFP, transduced Vav3-/- leukemic murine B-cell progenitors (fixed cells)
  fold reduction of the PLA signal against full-length Vav3: ~2 fold
